Test results reported in PMC11413003.

Key:
[1] = target: S. cerevisiae CIII2CIV1/2 supercomplex (S. cerevisiae) (UniProt P08067); experiment: cryo-EM structure; 10.5 uM supercomplex with 126 uM S. cerevisiae cyt. c (~1:12) in 20 mM KCl, 20 mM KH2PO4 pH 7.4, 0.01 % GDN; 3D classification with a mask over the cyt. c region
[2] = target: S. cerevisiae CIII2CIV1/2 supercomplex (S. cerevisiae) (UniProt P08067)
[3] = target: complex III2 (CIII2) dimer of S. cerevisiae (S. cerevisiae) (UniProt P08067); experiment: cryo-EM structure; 10.5 uM supercomplex with 126 uM S. cerevisiae cyt. c (~1:12) in 20 mM KCl, 20 mM KH2PO4 pH 7.4, 0.01 % GDN; 3D classification with a mask over the cyt. c region

Substance | stoichiometry N (cyt. c per CIII monomer-CIV pair) [1] | QH2:O2 oxidoreductase activity (O2 reduction upon addition of QH2) of the supercomplex, cyt. c varied up to ~50 uM, 20 mM KCl [2] [electrons/s] | stoichiometry N [3]
cytochrome c from S. cerevisiae (from UniProt P00044 1-109) (natural protein) | 2 | 50 | –
complex III2 (CIII2) dimer of S. cerevisiae (from UniProt P08067 31-215; P07143 62-309; P00127 1-147; P22289 1-66) | – | – | 2
